Where no end group is shown, it is not given here.
Target: purified human fibrinogen (human) (UniProt P02671)
Experiment: cell-based or functional assay

Sequence of purified human fibrinogen (human) (P02671 20-629 limits assumed, chain 1 of 3): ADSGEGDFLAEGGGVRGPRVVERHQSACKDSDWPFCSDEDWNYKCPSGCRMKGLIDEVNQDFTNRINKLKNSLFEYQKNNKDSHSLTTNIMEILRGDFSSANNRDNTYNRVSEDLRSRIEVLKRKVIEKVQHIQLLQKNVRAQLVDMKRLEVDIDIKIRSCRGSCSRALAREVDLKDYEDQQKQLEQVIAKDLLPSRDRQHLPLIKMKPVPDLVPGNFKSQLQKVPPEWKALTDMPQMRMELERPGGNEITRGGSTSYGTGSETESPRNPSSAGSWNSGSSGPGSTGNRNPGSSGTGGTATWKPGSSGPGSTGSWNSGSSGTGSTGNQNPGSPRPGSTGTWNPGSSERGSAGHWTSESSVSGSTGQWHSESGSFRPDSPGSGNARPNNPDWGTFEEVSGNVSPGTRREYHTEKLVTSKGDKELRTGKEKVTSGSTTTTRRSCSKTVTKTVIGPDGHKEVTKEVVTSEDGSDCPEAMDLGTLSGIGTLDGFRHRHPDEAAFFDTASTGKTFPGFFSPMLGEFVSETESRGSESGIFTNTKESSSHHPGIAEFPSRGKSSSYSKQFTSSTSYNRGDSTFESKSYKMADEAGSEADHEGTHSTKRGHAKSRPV
Sequence of purified human fibrinogen (human) (P02675 31-491 limits assumed, chain 2 of 3, further chain): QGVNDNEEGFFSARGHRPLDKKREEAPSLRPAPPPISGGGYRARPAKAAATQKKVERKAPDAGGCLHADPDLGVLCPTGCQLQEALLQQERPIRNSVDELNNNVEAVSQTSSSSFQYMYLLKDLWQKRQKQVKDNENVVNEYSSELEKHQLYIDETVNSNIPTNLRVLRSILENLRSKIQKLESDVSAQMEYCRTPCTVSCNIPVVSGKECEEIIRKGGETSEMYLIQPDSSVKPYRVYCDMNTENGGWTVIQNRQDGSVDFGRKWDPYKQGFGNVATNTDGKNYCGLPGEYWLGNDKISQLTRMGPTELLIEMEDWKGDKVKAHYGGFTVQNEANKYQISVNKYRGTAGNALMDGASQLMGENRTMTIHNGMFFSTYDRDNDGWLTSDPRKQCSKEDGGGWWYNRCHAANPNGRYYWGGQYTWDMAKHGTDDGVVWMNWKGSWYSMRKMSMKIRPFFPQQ
Sequence of purified human fibrinogen (human) (P02679 other isoform, or with tags, fused parts or gaps limits assumed, chain 3 of 3, further chain): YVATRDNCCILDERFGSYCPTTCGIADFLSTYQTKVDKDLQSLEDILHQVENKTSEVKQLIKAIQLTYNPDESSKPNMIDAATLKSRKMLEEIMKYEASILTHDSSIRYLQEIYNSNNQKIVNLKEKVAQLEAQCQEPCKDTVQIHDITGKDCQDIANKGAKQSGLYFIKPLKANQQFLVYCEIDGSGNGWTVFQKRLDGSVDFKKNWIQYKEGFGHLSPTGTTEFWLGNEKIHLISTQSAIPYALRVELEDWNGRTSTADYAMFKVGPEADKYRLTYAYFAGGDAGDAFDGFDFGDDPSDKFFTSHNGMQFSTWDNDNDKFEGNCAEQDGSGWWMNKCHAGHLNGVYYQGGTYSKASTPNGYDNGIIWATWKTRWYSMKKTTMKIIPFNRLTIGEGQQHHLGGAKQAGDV

Clotting activity (seconds), non-irradiated control: 4.3 s | Clotting activity (seconds), storage for 2 weeks post irradiation: 9.4 s | Clotting activity (seconds), storage for 4 weeks post irradiation: 10 s
B1: Peptide dendrimer No. 13 (peptide, part only)
chain 1: GPRPG
chain 2: GHRPY
modifications: not fully specified (C-terminus); also: chimeric four-branch dendrimer: two copies of each chain, C-termini attached to a branched core of undefined make-up

Source: patent publication US20160324977A1
